US20070167369A1, “Novel use of isolated polypeptide comprising four FAS-1 domains, EM1 domain and RGD motif” (KYUNGPOOK NATIONAL UNIVERSITY INDUSTRY-ACADEMIC COOPERATION …, priority 2004, published 2007)

B1: βig-h3 D-II: recombinant protein containing the second fas-1 domain of human βig-h3 (SEQ ID NO: 62) (protein, listed as Homo sapiens)
chain: NIQQIIEIEDTFETLRAAVAASGLNTMLEGNGQYTLLAPTNEAFEKIPSETLNRILGDPEALRDLLNNHILKSAMCAEAIVAGLSVETLEGTTLEVGCSGDMLTINGKAIISNKDILATNGVIHYIDELLI
B2: Regenin: size control of truncated βig-h3: protein that expresses four copies of the fourth fas-1 domain (protein)
chain: MGTVMDVLKGDNRFSMLVAAIQSAGLTETLNREGVYTVFAPTNEAFRALPPRERSRLLGDAKELANILKYHIGDEILVSGGIGALVRLKSLQGDKLEVSLKNNVVSVNKEPVAEPDIMATNGVVHVITNVLMGTVMDVLKGDNRFSMLVAAIQSAGLTETLNREGVYTVFAPTNEAFRALPPRERSRLLGDAKELANILKYHIGDEILVSGGIGALVRLKSLQGDKLEVSLKNNVVSVNKEPVAEPDIMATNGVVHVITNVLMGTVMDVLKGDNRFSMLVAAIQSAGLTETLNREGVYTVFAPTNEAFRALPPRERSRLLGDAKELANILKYHIGDEILVSGGIGALVRLKSLQGDKLEVSLKNNVVSVNKEPVAEPDIMATNGVVHVITNVLMGTVMDVLKGDNRFSMLVAAIQSAGLTETLNREGVYTVFAPTNEAFRALPPRERSRLLGDAKELANILKYHIGDEILVSGGIGALVRLKSLQGDKLEVSLKNNVVSVNKEPVAEPDIMATNGVVHVITNVL

Experiments:
Assay type in all cases: cell-based, human
HUVECs [1] = assay: Endothelial tube formation assay on Matrigel (Examples 9-1 and 11); conditions: Example 11; controls BSA or Nus protein
Method: First, 100 μl of Matrigel (Chemicon, International Inc, Temecula, Calif.) was added to each well of a 96-well plate and allowed to polymerize. HUVECs were suspended in medium at a density of 3×10^5 cells/ml, and 0.1 ml of the cell suspension was added to each well of the plate coated with Matrigel. At this time, 5 μM or 10 μM of the fas-1 domain (βig-h3 D-IV) prepared in Example 1 above was added together. A control was either treated with BSA or had no treatment. Thereafter, the cells were incubated at 37° C. for 16-18 hours. The cells were photographed, and endothelial tubes were counted and averaged.
For this purpose, the second fas-1 domain of βig-h3 (βig-h3 D-II) was prepared in the same manner as in Example 1-1 above. Since each domain of stabilin-II is insoluble, it was prepared in the form of soluble protein by cloning into the BamHI/XhoI sites of a Nus-conjugated pET43.1 vector (Novagen, USA). The prepared recombinant proteins were named “Nus-fas3” and “Nus-fas7”, respectively. A control to the second fas-1 domain of βig-h3 was treated with BSA, and a control to the fas-1 domain of stabilin-II was treated with a Nus protein. Thereafter, an endothelial tube formation assay was performed in the same manner as in Example 9-1.

HUVEC = assay: Adhesion of endothelial cells to vitronectin (Example 13-1)
Method: Flat-bottomed 96-well ELISA plates (Costar, Corning, Inc., NY) were incubated overnight at 4° C. with 5 μg/ml of vitronectin (Promega, Madison, Wis.) and blocked for 1 hour at room temperature with PBS containing 2% bovine serum albumin (BSA).
Primary human umbilical vein endothelial cells (HUVEC) were cultured at 37° C. in 5% CO2 in M199 medium supplemented with 20% fetal bovine serum. For all the experiments, HUVECs were used at passage 4 or less. HUVEC cells were suspended in medium at a density of 3×10^5 cells/ml, and 0.1 ml of the cell suspension was pre-incubated with or without the indicated concentration of the truncated βig-h3, the fas-1 domain and Regenin for 40 min at 37° C., then added to each well of the coated. After incubation for 5 to 10 minutes at 37° C., unattached cells were removed by rinsing with PBS. Attached cells were then incubated for 1 hour at 37° C. in 50 mM citrated buffer (pH 5.0) containing 3.75 mM p-nitrophenyl-N-acetyl-Dglycosamide and 0.25% Triton X-100. Enzyme activity was blocked by adding 50 mM glycine buffer (pH 10.4) containing 5 mM EDTA, and the absorbance was measured at 405 nm in a Bio-Rad model 550 microplate reader.

HUVECs [2] = assay: Endothelial tube formation in Matrigel (Example 14)
Method: Matrigel (Chemicon, International Inc, Temecula, Calif.) was added (100 μl) into each well of a 96-well plate and polymerized for 30 minutes at 37° C. HUVECs were suspended in medium at a density of 3×10^5 cells/ml, and 0.1 ml of the cell suspension was pre-incubated with or without the indicated concentration of the truncated βig-h3, the fas-1 domain and Regenin for 40 min at 37° C., then seeded on the surface of the Matrigel. Cells were incubated for 6 to 10 hours at 37° C. The cells were then photographed, and branch points from 4 high-power fields (x200) were counted and averaged.

HUVECs [3] = assay: Migration of endothelial cells to vitronectin, transwell (Example 13-2)
Method: Cell migration assays were done in transwell plates (8 μm pore size, Costar, Cambridge, Mass.). The undersurface of the membrane was coated with 5 μg/ml of vitronectin at 4° C. and blocked for 1 hour at room temperature with PBS containing 2% BSA. HUVECs were suspended in medium at a density of 3×10^5 cells/ml, and 0.1 ml of the cell suspension was pre-incubated with or without the indicated concentration of the truncated βig-h3, the fas-1 domain and Regenin for 40 min at 37° C., then added to the upper compartment of the filter. Cells were allowed to migrate for 4 to 6 hours at 37° C. The filters were fixed with 8% glutaraldehyde and stained with crystal violet, and non-migrating cells on the upper surface of the filter were removed by wiping with a cotton swab. The extent of cell migration was determined by light microscopy, and within each well, counting was done in nine randomly selected microscopic high power fields (x200).

Row | Molecule | inhibition of endothelial tube formation by various fas-1 domains (HUVECs [1]) | inhibition of adhesion to vitronectin (HUVEC; 500 nM) | inhibition of adhesion to vitronectin (HUVEC; various concentrations, vitronectin 5 μg/ml) | 70%-inhibition of tube formation observed at (HUVECs [2]; concentration giving 70% inhibition) | inhibition of tube formation (HUVECs [2]; various concentrations, 6 to 10 hours) | IC50 (HUVECs [3]; read-out: half-inhibition of migration toward vitronectin observed at) | inhibition of migration to vitronectin (HUVECs [3]; various concentrations, 4 to 6 hours)
1 | B1 | completely inhibited |  |  |  |  |  | 
2 | B2 |  | ineffective | dose-dependent inhibition | 5 µM | dose-dependent inhibition | 5 µM | dose-dependent inhibition
